Source: article PMC12394453 (Signal Transduction and Targeted Therapy, 2025)

Key:
Conditions in all cases: both partners purified
[1] = target: NiV-G head domain (crystallisation construct, deglycosylated) (Nipah virus, NP_112027 / Q9IH62 …); test: crystal structure
[2] = target: T1, HeV-G (wild-type Hendra virus attachment glycoprotein G, soluble recombinant) (Hendra virus, UniProt O89343); test: SPR
T1 construct: source: Expi-293F, purified (StrepTrap HP)

[3] = target: deglycosylated NiV-G (N-linked glycans removed with PNGase F) (Nipah virus, Bangladesh isolate …, UniProt Q4VCP5, strain, N-linked glycans removed with PNGase F); test: SPR; Biacore T200; antibody (0.5 μg/mL in HBS-EP+) […]; association 120 s, dissociation 900 s

Binder | binding result [1] | binding result [2] | binding result [3]
14F8 Fab (Fab, V domains shown, also called 14F8 Fab fragment) VH: QVQLKESGPGLVAPSQSLSITCTVSGFSLTSYDISWIRQPPGKGLEWLGVIWTGGVTNYNSAFLSRLSISKDNSKSQVFLKMNSLQTDDTAIYYCVREGDWFFDVWGAGTTVTVSS VL: DVLMTQTPLSLPVSLGDQASISCRSSQSIVHSNGNTYLEWYLQKPGQSPQLLIYKVSNRFSGVPDRFSGSGSGTDFTLKINRVEAEDLGLYYCFQASHVPYTFGGGTKLEIK | binds | – | –
chimeric antibody 14F8 (variable regions of mouse m14F8 on a human IgG1 constant region backbone) (antibody, V domains shown, also called Humanized 14F8; m14F8 (mouse parent)) VH: QVQLKESGPGLVAPSQSLSITCTVSGFSLTSYDISWIRQPPGKGLEWLGVIWTGGVTNYNSAFLSRLSISKDNSKSQVFLKMNSLQTDDTAIYYCVREGDWFFDVWGAGTTVTVSS VL: DVLMTQTPLSLPVSLGDQASISCRSSQSIVHSNGNTYLEWYLQKPGQSPQLLIYKVSNRFSGVPDRFSGSGSGTDFTLKINRVEAEDLGLYYCFQASHVPYTFGGGTKLEIK | – | no binding (tested: 100 nM) | binds
